Assay [1] has as its target T1, RSV prefusion F (preF), subtype B (respiratory syncytial virus subtype B).
T1 construct: also called Prefusion subtype B
The assay can be described thus: BLI, IgG.

In assay [2] the target is T2, RSV postfusion F (postF), subtype A (respiratory syncytial virus subtype A, UniProt P03420 26-513).
T2 construct: also called Postfusion subtype A; F deltaFP
Briefly: BLI. A general note: BLI is a label-free optical method that tracks binding on a fibre tip over time.

The target of assay [3] is RSV F on RSV subtype A virus (mKate-RSV A2) (respiratory syncytial virus A2, UniProt P03420 26-574). Briefly: cell-based or functional assay.
For assay [4], the target named is RSV F on RSV subtype B virus (mKate-RSV B 18537) (respiratory syncytial virus B 18537, UniProt P13843 26-574). The assay can be described thus: cell-based or functional assay.

Substitutions are numbered along the chain they refer to.

B1: ADI-14345 (antibody, V domains shown)
VH: QITLKESGAEVKKPGASVKVSCKVSGYTLSDFSMHWVRQAPGKGLEWMGSFDPEDGETVDAQKFQGRVTMTEDRSTATAYMELRSLRSEDTAVYYCGTPASAGQVDYWGQGTLVTVSS
VL: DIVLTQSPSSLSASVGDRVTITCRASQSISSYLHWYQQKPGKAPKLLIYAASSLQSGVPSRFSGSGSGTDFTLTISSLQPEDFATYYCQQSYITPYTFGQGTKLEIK
notes: full-length IgG; also called Ab 13
On to B1, for which, in assay [1], the Kd (in general, the concentration at which binding is half-saturated) turned out to be 5.26 nM. The binding result in assay [2] is given as “no binding”. Further, in assay [3], the “Neut IC50 subtype A” value was 2.3 µg/mL. The “Neut IC50 subtype B” value in assay [4] turned out to be 0.87 µg/mL.

B2: ADI-22774 (antibody, V domains shown)
VH: EVQLLESGGGLVKPGGSLRLSCAASGFTFSSYSMNWVRQAPGKGLEWVSSISSSSSYIYYADSVKGRFTISRDNAKNSLYLQMNSLRAEDTAVYYCAREGASGYNYRYYFDYWGQGTLVTVSS
VL: QSVLTQPPSVSGAPGQRVTISCTGSSSNIGAGYDVHWYQQFPGAAPKLLIYGNNNRPSGVPDRFSGSKSGTSASLAITGLQADDEADYYCQSYDSSLSGYVVFGGGTKLTVL
notes: full-length IgG
Turning to B2, in assay [1], the affinity, expressed as Kd, was 4.28 nM. Also, the binding result in assay [2] is listed as “no binding”. The “Neut IC50 subtype A” value in assay [3] was found to be 0.29 µg/mL. For the same molecule, the “Neut IC50 subtype B” value in assay [4] stood at 7.53 µg/mL.

B3: ADI-14335 (antibody, V domains shown)
VH: EVQLVESGGGLVQPGRSLRLSCTASGFTFGDYAMSWVRQAPGKGLEWVGFIRSNAFGGTSEYAASVKGRFTISRDDSKSIAYLQMNSLKTEDTAVYYCTRDGIHDYGDSYYYYGMDVWGQGTTVTVSS
VL: DIQLTQSPSSLSASVGDRVTITCRASQTVTTYLNWYQQKPGKAPKLLIYGASSLQSGVPSRFSGSGSGTDFTLTINSLQPEDFATYYCQQTYSTVTFGPGTKVEIK
notes: full-length IgG; also called Ab 3
In the case of B3, in assay [1], the dissociation constant Kd was 0.889 nM. The binding result in assay [2] is “no binding”. Moreover, in assay [3], the “Neut IC50 subtype A” value was determined as 0.32 µg/mL. Moreover, in assay [4], the “Neut IC50 subtype B” value was determined as 0.1 µg/mL.

B4: ADI-14344 (antibody, V domains shown)
VH: QVQLVQSGGGLVQPGGSLRLSCAASGFTFRTYALSWVRQAPGKGLEWVSSILGSGGSTYYADSVKGRFTISRDNSKNTLYLQLNSLRAEDTAVYFCAKLAVAGLLHHYYGLDVWGQGTTVTVSS
VL: SYELTQPPSVSVSPGQTASITCSGDKLENKYACWYQQKPGQSPVLLIYQDTKRPSGIPERFSGSNSGTTATLTISGTQALDEADYYCQAWDSSTASVLFGGGTQLTVL
notes: full-length IgG; also called Ab 12
In assay [1], B4 registered a Kd of 0.586 nM. Also, the binding result in assay [2] was “no binding”. The “Neut IC50 subtype A” value in assay [3] came out at 8.68 µg/mL. In addition, the “Neut IC50 subtype B” value in assay [4] turned out to be 1.2 µg/mL.

B5: ADI-25524 (antibody, V domains shown)
VH: EVQLLESGGGLVKPGGSLRLSCAASGFTFSSYSMNWVRQAPGKGLEWVSSISSSSSYIYYADSVKGRFTISRDNAKNSLYLQMNSLRAEDTAVYYCAREWSPIVVVTNAFDIWGQGTMVTVSS
VL: QSVLTQPPSVSGAPGQRVTISCTGSSSNIGAGYDVHWYQQLPGTAPKLLIYGNSNRPSGVPDRFSGSKSGTSASLAITGLQAEDEADYYCQSYDSSLSGWVFGGGTKVTVL
notes: full-length IgG
The molecule B5 showed an equilibrium dissociation constant (Kd) in assay [1] of 23.4 nM. Besides, the binding result in assay [2] is “no binding”. Besides, the “Neut IC50 subtype A” value in assay [3] is 1.77 µg/mL. For the same molecule, in assay [4], the “Neut IC50 subtype B” value amounted to 2.09 µg/mL.

B6: ADI-14333 (antibody, V domains shown)
VH: EVQLVETGGGLVKPGGSLRLSCADSGFPFSSYSMHWVRQAPGKGLEWVASISSSSSFINYADSVKGRFTISRDNAKNSLYLQMNSLRAEDTAVYFCAREAACGGDCYGYYFDYWGQGTLVTVSS
VL: B5 VL with L4V, V10A, L48V, Y51S, D62A, W100S, K107Q, V108L
notes: full-length IgG; also called Ab 1
With B6, the Kd in assay [1] was determined as 0.904 nM. Also, the binding result in assay [2] is listed as “no binding”. For the same molecule, the “Neut IC50 subtype A” value in assay [3] stood at 0.07 µg/mL. Besides, the “Neut IC50 subtype B” value in assay [4] was found to be 0.09 µg/mL.

B7: ADI-19475 (antibody, V domains shown)
VH: EVQLLESGAEVKKPGASVKVTCKASGYTFTHFGINWVRQAPGQGLEWLGWISAYNGNTNYVQKIQGRVTMTTDTSTNTAYMELRSLRSDDTAVYYCARGPPVEAAGTFDYWGQGTLVTVSS
VL: DIVLTQSPLSLPVTLGQPASISCRSSQSLVYSDGNTYLTWFQQRPGQSPRRLIYKVSNRDSGVPDRFSGSGSGTDFTLQISRVEAEDVGVYYCMQGTHWPFTFGPGTKVEIK
notes: full-length IgG
For the molecule B7, the Kd in assay [1] is 4.25 nM. In assay [2], the binding result is given as “no binding”. Moreover, the “Neut IC50 subtype A” value in assay [3] was determined as 0.05 µg/mL. The “Neut IC50 subtype B” value in assay [4] is 0.04 µg/mL.

B8: ADI-22757 (antibody, V domains shown)
VH: EVQLLESGAEVKKPGASVKVSCKASGYTFSNYGISWVRQAPGQGLEWMGWISVYNGNTEYAQKFQGRLTMTTDTSTSTAYMELRSLRSDDTAVYYCARDPPAVAASFMDVWGQGTTVTVSS
VL: B7 VL with D1E, Y31H, D33E, T39S, Q79K, V90L, Y92F, F101P, P105G
notes: full-length IgG
Molecule B8 yielded a Kd in assay [1] of 0.538 nM. Further, in assay [2], the binding result is recorded as “no binding”. Further, the “Neut IC50 subtype A” value in assay [3] was 0.06 µg/mL. In addition, the “Neut IC50 subtype B” value in assay [4] was found to be 0.07 µg/mL.

B9: ADI-19501 (antibody, V domains shown)
VH: QVQLVQSGAEVKKPGASVKVSCKASGYAFTNYGVSWVRQAPGQGLEWMGWISVYNGNTNYAQKLQGRVTMTTDTSTSTAYMELRSLRSDDTALYYCARDPPSEGAAGLFDYWGQGTLVTISS
VL: B7 VL with L4M, I21F, T39S, Q79K, F101C, P105Q
notes: full-length IgG
In assay [1], B9 displayed a Kd of 1.59 nM. For the same molecule, the binding result in assay [2] was “no binding”. The “Neut IC50 subtype A” value in assay [3] was found to be 0.02 µg/mL. In assay [4], the “Neut IC50 subtype B” value was 0.02 µg/mL.

B10: ADI-14337 (antibody, V domains shown)
VH: EVQLVESGGGLVKPGGSLRLSCAASGFTFSSYSMNWVRQAPGKGLEWVSSISSSSSYIYYADSVKGRFTISRDNAKNSLYLQMNSLRAEDTAVYYCAREYYDSSGYTNWFDPWGQGTLVTVSS
VL: QPVLTQPPSVSGAPGQRVTISCTGSSSNIGAGYDVHWYQQLPGTAPKLLIYGNSNRPSGVPDRFSGSKSGTSASLAITGLQAEDEADYYCQSYDSSLAWVFGGGTQLTVL
notes: full-length IgG; also called Ab 5
In the case of B10, the Kd in assay [1] turned out to be 2.11 nM. Further, the binding result in assay [2] is given as “no binding”. For the same molecule, the “Neut IC50 subtype A” value in assay [3] stood at 0.1 µg/mL. Also, the “Neut IC50 subtype B” value in assay [4] turned out to be 0.07 µg/mL.

B11: ADI-14346 (antibody, V domains shown)
VH: EVQLLESGGGLVKPGGSLRLSCAASGFRFSSYSMNWVRQAPGKWLEWVSSISASSSYTDYADSVKGRFTISRDNAKNSLYLQMNSLRAEDTAVYYCAREDYLSSGSLLHWFDPWGQGTLVTVSS
VL: B10 VL with S54N, S96R, A98S, W99V, V100L, Q106K, L107V
notes: full-length IgG; also called Ab 14
In assay [1], B11 had a dissociation constant (Kd) of 0.925 nM. The binding result in assay [2] was “no binding”. Besides, the “Neut IC50 subtype A” value in assay [3] came to 0.05 µg/mL. For the same molecule, the “Neut IC50 subtype B” value in assay [4] turned out to be 0.07 µg/mL.

B12: ADI-14340 (antibody, V domains shown)
VH: EVQLVESGGGLVKPGGSLRLSCAASGFTLSSYTMNWVRQAPGRGLEWVSSIYSTSSYIYYADSVKGRFTISRDNAKNSLYLQMNSLRAEDTAVYYCARDSQAVTGTDLYFDSWGQGTLVTVSS
VL: QPGLTQPPSVSVAPGKTARITCGGNNIGRKNVHWYQQKPGQAPILVIYYDSDRPSGIPERFSGSNSGNTATLTISRVEDGDEADYYCQVWDSSNDHVIFGGGTQLTVL
notes: full-length IgG; also called Ab 8
As to B12, the Kd in assay [1] was found to be 98 nM. Further, the binding result in assay [2] is listed as “no binding”. In addition, the “Neut IC50 subtype A” value in assay [3] came to 6.63 µg/mL. The “Neut IC50 subtype B” value in assay [4] worked out at 1.94 µg/mL.
